Reference: patent US20190002511A1
Like-named read-outs stand apart in the source and are kept apart here.

Legend:
[1] = target: human α-thrombin (recombinant) (human), P00734; test: cell-based or functional assay
[2] = target: human α-thrombin (recombinant) (human), P00734; test: cell-based or functional assay; remark: listed apart in the source
[3] = target: human α-thrombin (recombinant) (human), P00734; test: comparison of Ki values
[4] = target: human α-thrombin (recombinant) (human), P00734; test: thrombin amidolytic assay with S2238, Morrison tight-binding fit
[5] = target: human α-thrombin (recombinant) (human), P00734; test: thrombin amidolytic assay with S2238; column headed Affinity (nM)
[6] = target: human α-thrombin (recombinant) (human), P00734; test: assay not named; the printed µM is most likely a misprint of pM (compare Table 5 and paragraph 9)

IC50, inhibition of thrombin amidolytic activity [1]: 0.26 nM
IC50, inhibition of thrombin amidolytic activity [2]: 0.4 nM
fold more potent than variegin (Ki) [3]: > 70 fold
fold stronger affinity than avathrin and variegin [3]: > 200 fold
Ki [4]: 0.0044 nM
Ki [5]: 0.001 nM
Ki [6]: 1500 nM
Binder: SDEAVRAIPKMYSTAPPGDFEEIPDDAIEE (modifications not checked) [ultravariegin]
